These are literature values, as cited in article PMC4115806.

This series has as its target EPCR (Homo sapiens) (UniProt Q9UNN8).

Chain of EPCR (Homo sapiens) (Q9UNN8 18-210): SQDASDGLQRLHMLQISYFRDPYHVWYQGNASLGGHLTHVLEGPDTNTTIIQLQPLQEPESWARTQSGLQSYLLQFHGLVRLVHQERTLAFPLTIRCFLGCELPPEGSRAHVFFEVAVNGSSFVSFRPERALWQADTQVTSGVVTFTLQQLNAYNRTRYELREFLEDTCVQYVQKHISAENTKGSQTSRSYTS
Chain of protein C (P04070 43-197): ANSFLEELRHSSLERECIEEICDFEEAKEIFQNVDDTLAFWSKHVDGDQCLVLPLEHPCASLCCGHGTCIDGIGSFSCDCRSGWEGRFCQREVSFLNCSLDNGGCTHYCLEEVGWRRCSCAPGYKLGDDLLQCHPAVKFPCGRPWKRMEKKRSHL

In general, Kd refers to the free concentration of one partner at which half of the binding sites on the other are occupied at equilibrium, for simple one-to-one binding. As for protein C (from UniProt P04070), the Kd is 30 nM.
